According to article PMC11128890 (Frontiers in Cell and Developmental Biology, 2024):
Blank lines part the entries; values can stand above or below the molecule they belong to.

Experiments:
[1] = molecular target: KDR domain 1 (D1) fused to GST; test: ELISA-type binding assay; settings: GST-KDR-D1 100 μg/mL, read off a plot
[2] = molecular target: VEGFR2/KDR (Homo sapiens) (UniProt P35968); settings: cited from earlier work
[3] = molecular target: T1, KDR domain 1 (D1) fused to GST; test: ELISA-type binding assay; settings: chain shown with the change, read off a plot
T1 chain: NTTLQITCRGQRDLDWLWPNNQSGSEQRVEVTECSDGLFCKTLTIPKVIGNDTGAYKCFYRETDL

[4] = molecular target: T2, recombinant soluble integrin αvβ3 (UniProt P06756 31-987; P05106 27-718); test: ELISA; HBD, NTD or HBD mutants coated on 96-well plates, blocked with BSA; soluble αvβ3 (1 μg/mL) in HEPES-Tyrode buffer + 1 mM MnCl2, 1 h room temperature; bound αvβ3 detected with anti-β3 mAb AV10; binding to HBD inhibited by mAb 7E3 and cation-dependent; settings: both partners purified
T2 construct: integrin αv subunit, soluble expression construct; integrin β3 subunit, soluble expression construct; PDB 1L5G is the αvβ3 structure used for docking, not necessarily the same limits; also called soluble αvβ3; source: CHO K1 cells, soluble αv and β3 expression constructs, purified (Ni-NTA)

[5] = molecular target: T3, KDR domain 1 (D1), His-tagged; test: SPR; KDR D1 (His-tagged) immobilised on CM5 chip by amine coupling; HBD injected at 50 μL/min for 1.8 min; HBS-EP buffer (0.01 M HEPES pH 7.4, 0.15 M NaCl, 3 mM EDTA, 0.0005% P20); settings: both partners purified
T3 construct: first IgG-like domain (D1) of VEGFR2/KDR, amplified from full-length KDR cDNA; Cloned into the BamHI/EcoRI site of pET28a; also called KDR D1; KDR D1 (His-tagged)
T3 chain: T1 chain

[6] = molecular target: T2, recombinant soluble integrin αvβ3; test: SPR; soluble αvβ3 (His-tagged) immobilised on CM5 chip by amine coupling; HBD injected at 50 μL/min for 1.8 min; HBS-P buffer (0.01 M HEPES pH 7.4, 0.15 M NaCl, 0.0005% P20) with 1 mM Mn2+; settings: both partners purified
[7] = molecular target: T4, KDR domain 1 (D1), His-tagged; test: SPR
T4 chain: T1 chain

[8] = HBD at 10 µg/ml, parent: est. 0.93
[9] = HBD coated at 20 µg/ml (highest point of the curve), parent: est. 1.4
[10] = GST-KDR-D1 100 μg/mL, parent: est. 0.51

T2 sequence (P06756 31-987, chain 1 of 2): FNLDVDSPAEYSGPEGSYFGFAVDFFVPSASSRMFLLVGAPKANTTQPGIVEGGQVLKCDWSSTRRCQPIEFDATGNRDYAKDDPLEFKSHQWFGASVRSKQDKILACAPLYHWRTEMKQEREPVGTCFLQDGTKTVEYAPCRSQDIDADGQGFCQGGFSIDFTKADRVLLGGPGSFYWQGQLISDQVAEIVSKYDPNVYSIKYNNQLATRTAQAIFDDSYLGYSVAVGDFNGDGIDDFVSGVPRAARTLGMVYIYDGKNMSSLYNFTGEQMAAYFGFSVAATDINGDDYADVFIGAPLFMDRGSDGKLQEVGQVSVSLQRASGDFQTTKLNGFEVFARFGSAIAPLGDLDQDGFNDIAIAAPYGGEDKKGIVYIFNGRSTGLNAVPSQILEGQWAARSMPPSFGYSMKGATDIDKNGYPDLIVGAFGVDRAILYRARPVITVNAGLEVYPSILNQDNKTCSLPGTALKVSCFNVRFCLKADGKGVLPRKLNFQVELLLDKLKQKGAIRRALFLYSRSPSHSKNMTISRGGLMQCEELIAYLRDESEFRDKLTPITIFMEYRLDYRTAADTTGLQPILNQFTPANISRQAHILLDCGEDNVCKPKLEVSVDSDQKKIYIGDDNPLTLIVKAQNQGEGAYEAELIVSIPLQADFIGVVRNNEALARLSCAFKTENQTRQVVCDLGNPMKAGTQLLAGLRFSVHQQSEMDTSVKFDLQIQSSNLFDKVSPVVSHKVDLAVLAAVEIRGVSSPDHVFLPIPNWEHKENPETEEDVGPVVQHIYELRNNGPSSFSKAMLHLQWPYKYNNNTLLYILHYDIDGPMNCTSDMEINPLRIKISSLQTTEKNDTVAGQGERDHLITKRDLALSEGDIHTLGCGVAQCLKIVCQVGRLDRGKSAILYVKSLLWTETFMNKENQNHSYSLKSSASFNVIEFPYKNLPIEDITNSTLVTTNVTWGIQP
T2 sequence (P05106 27-718, chain 2 of 2): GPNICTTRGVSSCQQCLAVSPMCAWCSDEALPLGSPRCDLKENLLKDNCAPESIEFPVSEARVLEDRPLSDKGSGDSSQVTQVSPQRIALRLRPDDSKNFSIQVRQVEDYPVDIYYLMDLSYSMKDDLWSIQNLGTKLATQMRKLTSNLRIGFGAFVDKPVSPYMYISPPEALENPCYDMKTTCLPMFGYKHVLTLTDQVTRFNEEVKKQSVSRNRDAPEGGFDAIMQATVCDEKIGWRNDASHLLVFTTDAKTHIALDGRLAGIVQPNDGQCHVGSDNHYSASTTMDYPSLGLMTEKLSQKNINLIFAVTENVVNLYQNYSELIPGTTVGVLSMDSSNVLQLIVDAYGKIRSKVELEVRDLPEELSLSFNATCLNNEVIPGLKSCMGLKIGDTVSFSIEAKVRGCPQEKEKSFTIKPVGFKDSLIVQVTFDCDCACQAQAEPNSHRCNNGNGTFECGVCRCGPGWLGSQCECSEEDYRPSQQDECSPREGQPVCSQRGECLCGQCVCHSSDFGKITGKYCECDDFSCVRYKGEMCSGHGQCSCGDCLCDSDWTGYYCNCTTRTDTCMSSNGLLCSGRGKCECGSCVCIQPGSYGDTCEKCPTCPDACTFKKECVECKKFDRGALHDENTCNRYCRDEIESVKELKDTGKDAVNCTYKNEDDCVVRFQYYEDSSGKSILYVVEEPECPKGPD
Sequence of VEGFR2/KDR (Homo sapiens) (P35968 20-1356): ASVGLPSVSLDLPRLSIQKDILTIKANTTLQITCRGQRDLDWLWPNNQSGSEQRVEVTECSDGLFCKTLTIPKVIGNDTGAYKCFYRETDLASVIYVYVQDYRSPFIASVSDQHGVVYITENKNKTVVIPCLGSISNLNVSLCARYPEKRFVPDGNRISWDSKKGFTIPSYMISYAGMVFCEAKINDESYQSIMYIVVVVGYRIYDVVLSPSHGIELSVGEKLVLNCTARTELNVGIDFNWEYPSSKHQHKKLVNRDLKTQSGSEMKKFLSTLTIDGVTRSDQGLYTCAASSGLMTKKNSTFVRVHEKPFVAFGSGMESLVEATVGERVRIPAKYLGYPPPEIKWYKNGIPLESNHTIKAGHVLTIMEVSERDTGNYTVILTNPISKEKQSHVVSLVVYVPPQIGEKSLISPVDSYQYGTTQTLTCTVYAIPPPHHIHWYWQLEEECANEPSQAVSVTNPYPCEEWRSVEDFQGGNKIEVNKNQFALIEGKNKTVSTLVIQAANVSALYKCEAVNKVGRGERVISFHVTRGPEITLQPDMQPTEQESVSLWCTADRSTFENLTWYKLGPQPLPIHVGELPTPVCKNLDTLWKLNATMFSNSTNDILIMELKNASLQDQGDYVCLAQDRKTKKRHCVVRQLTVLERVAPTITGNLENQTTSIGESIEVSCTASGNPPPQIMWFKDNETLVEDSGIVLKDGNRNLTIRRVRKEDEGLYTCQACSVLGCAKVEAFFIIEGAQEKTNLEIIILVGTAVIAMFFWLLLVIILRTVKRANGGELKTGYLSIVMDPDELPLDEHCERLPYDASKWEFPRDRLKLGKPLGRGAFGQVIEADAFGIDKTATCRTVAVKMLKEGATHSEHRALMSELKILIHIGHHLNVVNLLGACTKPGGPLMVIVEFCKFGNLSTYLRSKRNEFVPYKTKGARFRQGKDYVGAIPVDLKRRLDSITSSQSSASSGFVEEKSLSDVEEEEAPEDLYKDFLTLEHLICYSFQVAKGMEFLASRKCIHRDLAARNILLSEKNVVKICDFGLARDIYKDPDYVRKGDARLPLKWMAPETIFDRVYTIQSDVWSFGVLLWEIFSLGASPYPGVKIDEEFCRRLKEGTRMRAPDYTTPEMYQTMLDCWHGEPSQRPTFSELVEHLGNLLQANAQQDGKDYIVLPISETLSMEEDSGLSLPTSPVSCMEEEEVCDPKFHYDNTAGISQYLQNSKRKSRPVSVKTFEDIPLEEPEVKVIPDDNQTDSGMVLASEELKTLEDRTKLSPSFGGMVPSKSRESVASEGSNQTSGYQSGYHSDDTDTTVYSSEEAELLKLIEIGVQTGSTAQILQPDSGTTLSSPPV

Molecule: VEGF165 heparin-binding domain (HBD), wild type K140E
response [1, 8]: 0.73 OD450 | response [1, 9]: 0.89 OD450

Molecule: VEGF165 (from UniProt P15692)
Kd [2]: 0.14 nM

Molecule: VEGF165 heparin-binding domain (HBD), wild type K136E
response [1, 8]: 1 OD450

Molecule: PCGPCSERREHLFVQDPQTCKCSCKNTDSRCKARQLELNERTCRCDKPRR [VEGF165 heparin-binding domain (HBD), wild type K125E]
response [3, 10]: 0.31 OD450

B1: VEGF165 heparin-binding domain (HBD), wild type (domain or fragment, human)
chain: PCGPCSERRKHLFVQDPQTCKCSCKNTDSRCKARQLELNERTCRCDKPRR
notes: Cloned into the BamHI/EcoRI site of pET28a; PDB 2VGH is the HBD structure used for docking; also called VEGF165-HBD; VEGF165 HBD
Kd [5]: ~100 nM | Kd [6]: 470 nM | Kd [7]: 109 nM

The remaining lines, values ahead:

response [1, 8]: 0.74 OD450 | response [1, 9]: 1.1 OD450
Molecule: VEGF165 heparin-binding domain (HBD), wild type K145E

response [3, 10]: 0.06 OD450 | response ([3]; HBD at 10 µg/ml, GST-KDR-D1 100 μg/mL, parent: est. 0.93): 0.14 OD450 | response ([3]; HBD coated at 20 µg/ml (highest point of the curve), GST-KDR-D1 100 μg/mL, parent: est. 1.4): 0.16 OD450
Molecule: PCGPCSEEEEHLFVQDPQTCKCSCKNTDSRCKARQLELNERTCRCDKPRR [VEGF165 heparin-binding domain (HBD), wild type R123E; R124E; K125E]

response [3, 10]: 0.14 OD450
Molecule: PCGPCSEERKHLFVQDPQTCKCSCKNTDSRCKARQLELNERTCRCDKPRR [VEGF165 heparin-binding domain (HBD), wild type R123E]

binding result [4]: binds
Molecule: PCGPCSERRKHLFVQDPQTCKCSCANTDSACKAAQLELNERTCRCDKPRR (domain or fragment, human, the substitutions are to be applied) [VEGF165 HBD K140A/R145A/R149A mutant]

response [3, 10]: 0.2 OD450
Molecule: PCGPCSEREKHLFVQDPQTCKCSCKNTDSRCKARQLELNERTCRCDKPRR [VEGF165 heparin-binding domain (HBD), wild type R124E]

binding result [4]: binds
Molecule: PCGPCSEAAAHLFVQDPQTCKCSCKNTDSRCKARQLELNERTCRCDKPRR (domain or fragment, human, the substitutions are to be applied) [VEGF165 HBD R123A/R124A/K125A mutant]

response ([3]; left graph (dose-response), HBD coated at 10 µg/ml, soluble GST-tagged KDR fragment 100 μg/mL, parent: est. 0.77): 0.1 OD450 | response ([3]; left graph (dose-response), HBD coated at 20 µg/ml, soluble GST-tagged KDR fragment 100 μg/mL, parent: est. 1.2): 0.16 OD450 | response ([3]; right graph (bar chart), 20 µg/ml, n=3, soluble GST-tagged KDR fragment 100 μg/mL, parent: est. 1.4): 0.13 OD450
Molecule: PCGPCSEAAAHLFVQDPQTCKCSCANTDSACKAAQLELNERTCRCDKPRR [VEGF165 heparin-binding domain (HBD), wild type R123A; R124A; K125A; K140A; R145A; R149A]
